Molecular target: T1, A*23:01/PHOX2B (human, UniProt P61769 21-119, limits assumed)
T1 construct: The preparation of this complex is not described; also called HLA-A*23:01/PHOX2B complex
Assay: SPR

Kd: ~20 µM
B1: 10LH single-chain antibody fragment (Clone 10 (RU141-10) scFv) (scFv)
scFv: SRNGGDGQSVLTQPPSVSVSPGQTASITCSGDSLGNKYACWYQQKPGQSPVLVIYQDSKRPSGIPERFSGSNSGNTATLTISGTQAMDEADYYCQAWDSSRGYTVVFGTGTKVTVSSQTGGSGGGGSGGGGSGGGGSEVQLLESGGGLVQPGGSLRLSCAASGFTFDSYAMSWVRQAPGKGLEWVSAISGYGGSTYYADSVKGRFTISRDNSKNTLYLQMNSLRAEDTAVYYCAKYTYFLDAFDIWGQGTMVTVSSS
notes: also called Clone 10LH; scFV 10LH
